Measurements: the supplement of paper PMC7125110
± gives the standard error. For some assays here: Variants at the floor of the assay were thinned out.

B1: glmS ribozyme (parent)
chain: AUAAAAGCGCCAGAACUACAGAAAUGUAGUUGACGAGGAGGAGGUUUAUCGAAUUUUCGGCGGAUGCCUCCAAA

What was measured:
Settings in all cases: with glucosamine-6-phosphate
glucosamine-6-phosphate [1] = variants of: B1; assay: kcat; higher = faster cleavage; RNA array
Method in brief: (§1)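 kcat and KM were obtained from weighted Michaelis–Menten fits across concentrations of kobs values. Those came from one- or two-exponential decay fits to per-tile medians normalised to baseline and to non-cleaving reference variants. The variants were barcoded ribozymes transcribed in situ by E. coli RNA polymerase on sequenced MiSeq chips and tracked through a hybridised Cy3 probe at 37 °C, with 40 μM to 10 mM glucosamine-6-phosphate in HEPES/KCl/Mg(OAc)2 buffer flowed in.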

glucosamine-6-phosphate [2] = variants of: B1; assay: KM; higher = weaker cofactor use; RNA array
Method in brief: as §1

glucosamine-6-phosphate [3] = variants of: B1; assay: self-cleavage kobs at 640 uM GlcN6P; higher = faster cleavage; RNA array
Method in brief: as §1

glucosamine-6-phosphate [4] = variants of: B1; assay: self-cleavage kobs at 2500 uM GlcN6P; higher = faster cleavage; RNA array
Method in brief: as §1

glucosamine-6-phosphate [5] = variants of: B1; assay: self-cleavage kobs at 10000 uM GlcN6P; higher = faster cleavage; RNA array
Method in brief: as §1

glucosamine-6-phosphate [6] = variants of: B1; assay: self-cleavage kobs at 40 uM GlcN6P; higher = faster cleavage; RNA array
Method in brief: as §1

glucosamine-6-phosphate [7] = variants of: B1; assay: self-cleavage kobs at 160 uM GlcN6P; higher = faster cleavage; RNA array
Method in brief: as §1

Variant | kcat (glucosamine-6-phosphate [1]) [s⁻¹] | KM (glucosamine-6-phosphate [2]) [µM] | self-cleavage kobs at 640 uM GlcN6P (glucosamine-6-phosphate [3]) [s⁻¹] | self-cleavage kobs at 2500 uM GlcN6P (glucosamine-6-phosphate [4]) [s⁻¹] | self-cleavage kobs at 10000 uM GlcN6P (glucosamine-6-phosphate [5]) [s⁻¹] | self-cleavage kobs at 40 uM GlcN6P (glucosamine-6-phosphate [6]) [s⁻¹] | self-cleavage kobs at 160 uM GlcN6P (glucosamine-6-phosphate [7]) [s⁻¹]
A48C A53G | 0.000334 ± 1.5e-05 | 2130 ± 190 | 7.49e-05 ± 1.2e-05 | 0.000187 ± 2.9e-05 | 0.000272 ± 3.6e-05 | – | –
A52C C68U | 1.28e-05 ± 5.9e-07 | 249 ± 86 | – | – | – | < 1e-05 | –
A52U G66A | 0.000745 ± 0.00034 | – | – | 5.37e-05 ± 1.4e-05 | 0.000185 ± 2.9e-05 | – | –
A52U G66U | 4.61e-05 ± 3.4e-06 | – | – | 3.74e-05 ± 1.8e-05 | 4.26e-05 ± 1.2e-05 | < 1e-05 | –
A53G G66C | 0.000985 ± 5.6e-05 | 1230 ± 190 | – | 0.000619 ± 0.00014 | 0.000909 ± 0.00017 | – | 0.000121 ± 5e-05
G51A U54A G59A C68G | 2.9e-05 ± 7.6e-06 | – | – | – | – | – | –
G51U U54A | < 1e-05 | – | – | – | – | – | –
G51U C58G | 1.13e-05 ± 4.5e-06 | – | < 1e-05 | – | < 1e-05 | < 1e-05 | –
U49A A64G | 2.04e-05 ± 1.6e-06 | 2090 ± 850 | – | – | – | – | –
C50U C58G | 1.24e-05 ± 3.2e-06 | – | – | – | – | < 1e-05 | –
C50A C71U | 1.86e-05 ± 6.3e-07 | 296 ± 82 | – | – | 1.86e-05 ± 8.6e-06 | – | –
C50U C61G | 1.39e-05 ± 3.3e-06 | – | – | – | – | – | –
A52C C67A C68G | 2.5e-05 ± 1.2e-05 | – | – | – | – | – | –
U49G C67G | 8.59e-05 ± 1e-05 | – | 3.79e-05 ± 1e-05 | 4.61e-05 ± 8.8e-06 | 7.87e-05 ± 6.7e-06 | – | –
U49G G59A | < 1e-05 | – | – | – | – | < 1e-05 | < 1e-05
C50U G66U C70G | 4.59e-05 ± 1.9e-05 | – | – | – | – | – | –
A52U U56A | 7.93e-05 ± 2e-05 | – | – | 7.17e-05 ± 1.7e-05 | 6.73e-05 ± 9.7e-06 | < 1e-05 | –
A52U U56C | 2.72e-05 ± 1.5e-06 | 1210 ± 330 | – | – | – | – | –
A48G A52G | 1.36e-05 ± 9.9e-07 | – | < 1e-05 | – | – | – | –
U49G | 0.00147 ± 0.00022 | 2840 ± 550 | 0.000258 ± 7.3e-06 | 0.000807 ± 4.3e-05 | 0.00113 ± 4.5e-05 | 2.57e-05 ± 1.3e-06 | 7.59e-05 ± 2.5e-06
U49A | 2.06e-05 ± 1.8e-06 | – | – | 2.11e-05 ± 3e-06 | 1.9e-05 ± 1.6e-06 | < 1e-05 | –
A52G C58G | 1.7e-05 ± 1.7e-06 | – | – | – | – | – | –

Variant | kcat (glucosamine-6-phosphate [1]) [s⁻¹] | KM (glucosamine-6-phosphate [2]) [µM] | self-cleavage kobs at 640 uM GlcN6P (glucosamine-6-phosphate [3]) [s⁻¹] | self-cleavage kobs at 2500 uM GlcN6P (glucosamine-6-phosphate [4]) [s⁻¹] | self-cleavage kobs at 10000 uM GlcN6P (glucosamine-6-phosphate [5]) [s⁻¹] | self-cleavage kobs at 40 uM GlcN6P (glucosamine-6-phosphate [6]) [s⁻¹] | self-cleavage kobs at 160 uM GlcN6P (glucosamine-6-phosphate [7]) [s⁻¹]
U47G U56G | 0.00559 ± 0.00071 | 1560 ± 280 | 0.00151 ± 0.00034 | 0.00299 ± 0.00058 | 0.00556 ± 0.00097 | 0.000148 ± 2.2e-05 | 0.000523 ± 0.00015
A52U U65A U69C | 1.13e-05 ± 8.7e-07 | 1400 ± 420 | – | – | – | – | –
C50G U55G C67G | 2.81e-05 ± 6.9e-06 | – | – | – | – | – | –
U49G C50U A64U C67G C70A | 3.56e-05 ± 1.6e-05 | – | 4.15e-05 ± 2e-05 | – | – | – | –
U47G U69G | 5.3e-05 ± 8.9e-06 | – | 7.19e-05 ± 9.1e-06 | 7.13e-05 ± 9.6e-06 | 4.09e-05 ± 5.2e-06 | 4.11e-05 ± 9e-06 | 5.87e-05 ± 1.3e-05
A53C G59C | < 1e-05 | – | < 1e-05 | – | < 1e-05 | < 1e-05 | –
C50A C58U | 1.33e-05 ± 5.8e-06 | – | < 1e-05 | – | – | – | –
C50A G60C | 1.48e-05 ± 7e-06 | – | – | – | – | – | –
U49A C71G | 2.68e-05 ± 1e-05 | – | 3.32e-05 ± 1.2e-05 | – | – | – | –
U49A C71A | < 1e-05 | – | – | – | – | – | –
U49G C71G | 7.69e-05 ± 4.8e-06 | 427 ± 120 | 4.8e-05 ± 8.8e-06 | 6.83e-05 ± 1.3e-05 | 7.21e-05 ± 9.4e-06 | – | –
A53G U65A C67A | 0.000109 ± 1.9e-05 | – | 0.000153 ± 3.7e-05 | 0.000112 ± 2.9e-05 | 9.28e-05 ± 2.4e-05 | – | 8.41e-05 ± 2.3e-05
U47G C70G | 0.000127 ± 1.9e-05 | – | 0.000101 ± 1.2e-05 | 0.000138 ± 1.5e-05 | – | 5.74e-05 ± 9e-06 | 0.000147 ± 2.1e-05
A48G C71G | 1.72e-05 ± 7.5e-06 | – | – | – | – | – | –
U47G U57C | 0.000206 ± 2.4e-05 | 6430 ± 1500 | – | 5.65e-05 ± 1.2e-05 | 0.000126 ± 1.3e-05 | – | –
U47G U57A | 0.000141 ± 1.3e-05 | 1670 ± 420 | 4.42e-05 ± 1.5e-05 | 7.57e-05 ± 2.1e-05 | 0.000125 ± 2.4e-05 | – | –
C50A G51A | < 1e-05 | – | – | – | < 1e-05 | – | –
A52C U57G | 9.64e-05 ± 1.4e-05 | 2300 ± 960 | – | 5.77e-05 ± 1.5e-05 | 7.59e-05 ± 1.6e-05 | – | < 1e-05
A52U C68A | 2.14e-05 ± 8.2e-06 | – | – | – | – | – | –
U47G C58G | 0.000117 ± 5.4e-05 | – | 5.51e-05 ± 2.1e-05 | 3.21e-05 ± 1.3e-05 | 8.31e-05 ± 1.2e-05 | – | –
A48G | 0.000117 ± 1.3e-05 | 845 ± 350 | 4.49e-05 ± 1.5e-06 | 0.00011 ± 2.2e-06 | 0.000103 ± 1.5e-06 | – | 1.61e-05 ± 3.1e-06
A48U | 0.000759 ± 5.7e-05 | 2420 ± 350 | 0.000153 ± 3.5e-06 | 0.000432 ± 1e-05 | 0.000593 ± 1.1e-05 | < 1e-05 | –
